In the supplement of paper PMC7125110:
± gives the standard error. For some assays here: Fewer inactive variants are shown than the library holds.

B1: glmS ribozyme (parent)
chain: AUAAAAGCGCCAGAACUACAGAAAUGUAGUUGACGAGGAGGAGGUUUAUCGAAUUUUCGGCGGAUGCCUCCAAA

Experiments:
Settings in all cases: with glucosamine-6-phosphate
glucosamine-6-phosphate [1] = variants of: B1; assay: kcat; higher = faster cleavage; RNA array
How it was run: (§1)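 kcat and KM were obtained from weighted Michaelis–Menten fits across concentrations of kobs values. Those came from one- or two-exponential decay fits to per-tile medians normalised to baseline and to non-cleaving reference variants. The variants were barcoded ribozymes transcribed in situ by E. coli RNA polymerase on sequenced MiSeq chips and tracked through a hybridised Cy3 probe at 37 °C, with 40 μM to 10 mM glucosamine-6-phosphate in HEPES/KCl/Mg(OAc)2 buffer flowed in.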

glucosamine-6-phosphate [2] = variants of: B1; assay: self-cleavage kobs at 640 uM GlcN6P; higher = faster cleavage; RNA array
How it was run: as §1

glucosamine-6-phosphate [3] = variants of: B1; assay: self-cleavage kobs at 2500 uM GlcN6P; higher = faster cleavage; RNA array
How it was run: as §1

glucosamine-6-phosphate [4] = variants of: B1; assay: self-cleavage kobs at 10000 uM GlcN6P; higher = faster cleavage; RNA array
How it was run: as §1

glucosamine-6-phosphate [5] = variants of: B1; assay: KM; higher = weaker cofactor use; RNA array
How it was run: as §1

glucosamine-6-phosphate [6] = variants of: B1; assay: self-cleavage kobs at 40 uM GlcN6P; higher = faster cleavage; RNA array
How it was run: as §1

glucosamine-6-phosphate [7] = variants of: B1; assay: self-cleavage kobs at 160 uM GlcN6P; higher = faster cleavage; RNA array
How it was run: as §1

| Variant | kcat (glucosamine-6-phosphate [1]) [s⁻¹] | self-cleavage kobs at 640 uM GlcN6P (glucosamine-6-phosphate [2]) [s⁻¹] | self-cleavage kobs at 2500 uM GlcN6P (glucosamine-6-phosphate [3]) [s⁻¹] | self-cleavage kobs at 10000 uM GlcN6P (glucosamine-6-phosphate [4]) [s⁻¹] | KM (glucosamine-6-phosphate [5]) [µM] | self-cleavage kobs at 40 uM GlcN6P (glucosamine-6-phosphate [6]) [s⁻¹] | self-cleavage kobs at 160 uM GlcN6P (glucosamine-6-phosphate [7]) [s⁻¹] |
| --- | --- | --- | --- | --- | --- | --- | --- |
| U55A U65C C67A | 0.000108 ± 1.2e-05 | 8.44e-05 ± 2.9e-05 | 8.42e-05 ± 2.6e-05 | 0.000114 ± 2.4e-05 |  |  |  |
| U31G G40C | 0.00108 ± 0.00013 | 0.000397 ± 5.8e-05 | 0.000864 ± 0.00017 | 0.0009 ± 0.00012 | 1280 ± 250 | 2.49e-05 ± 8e-06 | 0.000124 ± 2e-05 |
| G40U U69G | < 1e-05 | < 1e-05 |  |  | 1720 ± 260 | < 1e-05 | < 1e-05 |
| A53C U65G | 0.00136 ± 0.0002 | 0.000197 ± 2.5e-05 | 0.000555 ± 6.7e-05 | 0.00104 ± 0.0001 | 3420 ± 810 |  | 8.25e-05 ± 1.4e-05 |
| A42G C58G | 0.000303 ± 2.3e-05 |  | 7.8e-05 ± 1.5e-05 | 0.00018 ± 2.6e-05 | 6970 ± 950 |  |  |
| G37A C67G | 1.61e-05 ± 2e-06 |  |  |  |  |  |  |
| A48U C70U | 0.000821 ± 0.00021 | 0.000334 ± 5.5e-05 | 0.000416 ± 6.2e-05 | 0.000671 ± 9.3e-05 | 2160 ± 900 |  | 5.07e-05 ± 8e-06 |
| A52U U55C | 0.000619 ± 0.00011 |  | 0.000125 ± 3.2e-05 | 0.000288 ± 4.2e-05 |  |  |  |
| U49C C61U | 1.01e-05 ± 1.5e-06 |  |  | < 1e-05 |  |  |  |
| A14U U31G A64G | 0.00476 ± 0.0018 | 0.000996 ± 0.00037 | 0.00162 ± 0.00048 | 0.00468 ± 0.0012 |  | 6.69e-05 ± 1.5e-05 |  |
| U47G C70G | 0.000127 ± 1.9e-05 | 0.000101 ± 1.2e-05 | 0.000138 ± 1.5e-05 |  |  | 5.74e-05 ± 9e-06 | 0.000147 ± 2.1e-05 |
| G26U C67G | 0.000379 ± 7.2e-05 | 0.000245 ± 8.1e-05 | 0.000254 ± 5.2e-05 | 0.000395 ± 0.00012 | 901 ± 420 |  |  |
| G29U U65G | 0.00182 ± 0.0005 | 0.000188 ± 3e-05 | 0.000739 ± 0.0001 | 0.00124 ± 0.00017 | 4450 ± 1800 | 3.41e-05 ± 1.4e-05 | 8.11e-05 ± 1.6e-05 |
| G41A A48C | 1.6e-05 ± 1.9e-06 | < 1e-05 |  |  | 2350 ± 1000 | < 1e-05 |  |
| C11A U54C | 0.000278 ± 3.7e-05 | 3.08e-05 ± 1e-05 | 0.00011 ± 2.9e-05 | 0.000186 ± 3.4e-05 | 4640 ± 1100 |  |  |
| G29A A52G | 0.000368 ± 9e-05 | 5.31e-05 ± 8.1e-06 | 0.000207 ± 2.8e-05 | 0.000255 ± 3.8e-05 | 3290 ± 1300 |  |  |
